Source: patent publication US20180275124A1 (DEUTSCHES KREBSFORSCHUNGSZENTRUM STIFTUNG DES FFENTLICHEN …, published 2018)

How the values were obtained:
Experiment in all cases: surface plasmon resonance, Dectin-1 immobilized
[1] = target: T1, recombinant murine annexin A1 (murine, UniProt P10107 1-346)
T1 construct: Expressed in E. coli from pET41a with C-terminal FLAG tag, PreScission site and Protein A tag; the Protein A tag is cleaved off; also called mAnx1; mAnxA1; not shown: C-terminal FLAG tag and what remains of the PreScission site after cleavage
T1 sequence (looked up): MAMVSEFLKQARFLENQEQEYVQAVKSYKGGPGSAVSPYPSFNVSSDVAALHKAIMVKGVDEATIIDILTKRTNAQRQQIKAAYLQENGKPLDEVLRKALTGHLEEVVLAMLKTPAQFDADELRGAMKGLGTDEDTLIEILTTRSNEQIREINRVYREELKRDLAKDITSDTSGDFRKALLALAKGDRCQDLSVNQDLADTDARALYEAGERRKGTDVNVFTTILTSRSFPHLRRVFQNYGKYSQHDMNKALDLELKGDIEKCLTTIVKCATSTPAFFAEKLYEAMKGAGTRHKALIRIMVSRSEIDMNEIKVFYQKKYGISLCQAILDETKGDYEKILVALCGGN

[2] = target: T2, recombinant murine annexin A13 (murine, UniProt Q99JG3 1-317)
T2 construct: Recombinant protein; also called mAnxA13; AnxA13
T2 sequence (looked up): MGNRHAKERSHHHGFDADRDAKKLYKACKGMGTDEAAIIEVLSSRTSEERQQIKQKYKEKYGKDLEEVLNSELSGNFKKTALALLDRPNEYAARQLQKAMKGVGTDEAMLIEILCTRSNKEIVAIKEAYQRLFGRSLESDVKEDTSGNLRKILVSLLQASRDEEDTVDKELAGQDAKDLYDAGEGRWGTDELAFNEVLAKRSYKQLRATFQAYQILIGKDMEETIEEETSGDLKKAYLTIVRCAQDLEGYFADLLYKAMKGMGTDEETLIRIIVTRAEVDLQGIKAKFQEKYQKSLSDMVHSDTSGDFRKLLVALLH

[3] = target: T3, recombinant murine annexin A5 (murine, UniProt P48036 1-319)
T3 construct: Recombinant protein; also called mAnxA5; AnxA5
T3 sequence (looked up): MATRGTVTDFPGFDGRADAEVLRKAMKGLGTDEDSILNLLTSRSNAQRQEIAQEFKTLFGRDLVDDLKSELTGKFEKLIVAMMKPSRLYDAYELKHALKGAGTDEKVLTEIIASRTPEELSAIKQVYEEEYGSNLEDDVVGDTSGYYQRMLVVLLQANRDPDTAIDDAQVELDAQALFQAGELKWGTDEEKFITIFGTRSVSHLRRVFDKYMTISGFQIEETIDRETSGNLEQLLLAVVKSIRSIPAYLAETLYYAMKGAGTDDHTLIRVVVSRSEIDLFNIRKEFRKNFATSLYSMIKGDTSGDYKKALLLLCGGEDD

[4] = target: T4, murine annexin A1 core domain (murine, UniProt P10107 41-346, limits assumed)
T4 construct: domain: core domain; also called mAnxA1 core; AnxA1 core domain
T4 sequence (looked up): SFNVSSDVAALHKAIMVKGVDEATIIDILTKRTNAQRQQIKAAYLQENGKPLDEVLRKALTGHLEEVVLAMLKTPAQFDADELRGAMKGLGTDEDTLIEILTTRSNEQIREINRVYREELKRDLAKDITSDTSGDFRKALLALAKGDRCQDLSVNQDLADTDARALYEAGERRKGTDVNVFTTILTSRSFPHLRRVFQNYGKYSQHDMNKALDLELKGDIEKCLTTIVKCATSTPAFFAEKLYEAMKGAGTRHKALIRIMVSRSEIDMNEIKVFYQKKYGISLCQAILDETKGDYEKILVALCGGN

Measured: Kd

B1: Dectin-1 (receptor)
chain: GHNSGRNPEEKDNFLSRNKENHKPTESSLDEKVAPSKASQTTGGFSQPCLPNWIMHGKSCYLFSFSGNSWYGSKRHCSQLGAHLLKIDNSKEFEFIESQTSSHRINAFWIGLSRNQSEGPWFWEDGSAFFPNSFQVRNTAPQESLLHNCVWIHGSEVYNQICNTSSYSICEKEL
~100 nM: all assays above
